Tested on: 4% HBE mucus from CF donors
Assay: rheology of 4% solids CF HBE mucus (G′, G″)
Assay type: biochemical, human
Conditions: 1 hr at 37° C.
From the text: Mucus Preparation: Aseptic mucus was harvested from over 100 individual HBE cultures from 20 different CF donors and prepared to four weight-percent (4%) solids, a concentration that typifies chronic obstructive pulmonary disease (COPD) and mild CF (Hill, D. B. et al., 2014, A biophysical basis for mucus solids concentration as a candidate biomarker for airways disease, PloS one 9, e87681; Anderson, W. H. et al., 2015, The relationship of mucus concentration (hydration) to mucus osmotic pressure and transport in chronic bronchitis., Am J Resp Crit Care Med 192: 182-90). Rheology: HBE cell culture mucus was treated with DTT (1 mM) and several concentrations of ORP100S (0.01, 0.1, and 1.0 mM) for 1 hr at 37° C. following previously established methods (Hill, D. B., and Button, B., 2012, Establishment of respiratory air-liquid interface cultures and their use in studying mucin production, secretion, and function. In Mucins: Methods and Protocols, D. J. Thornton, ed., pp. 245-58; Youngren-Ortiz, S. et al., 2017, Development of optimized inhalable Gemcitabine-loaded gelatin nanocarriers for lung cancer, J Aerosol Med Pulm Drug Delivery 30:299-321; Seagrave, J., et al., 2012, Effects of guaifenesin, N-acetylcysteine, and ambroxol on MUC5AC and mucociliary transport in primary differentiated human tracheal-bronchial cells, Respir Res 13: 98). Concentration and time course assays were performed using a TA Instruments DHR3 rheometer to assess the bulk, macroscopic biophysical effects of test article and controls on HBE mucus properties. Briefly, the linear regime of a 1 Hz amplitude (stress) sweep was identified for each treatment condition. […] Creep recovery experiments were performed in which a known stress (between 0.05 and ˜100 Pa) was applied to treated or control mucus for 10 seconds, and the rheological recovery of the fluid was recorded for an additional 50 seconds. […] From the measured parameters the viscosity and elasticity of the fluid were determined as a function of applied stress. Frequency sweeps were performed at both constant stress and strains and used to determine the baseline physical properties of mucus and its elastic and viscous components (G′ and G″, respectively). Mucin molecular weight determination: Molecular weight reduction following test article treatment was determined using a combination of gel-permeation chromatography with multi-angle laser light scattering on a Wyatt Heleos MALLS system. MALLS is a rapid and accurate means of determining molecular size and mass of high MW biomolecules in a non-destructive manner without requiring the use of relative standards. Briefly, 4% HBE treated samples were diluted 100-fold in 0.9% NaCl with 10 mM EDTA and 0.01% sodium azide. 0.2 mL of diluted sample was eluted through a Sepharose CL2B column to separate high MW mucins from other mucus proteins, and the mucin fraction was introduced into the MALLS system. Mucin MW was determined by fitting a Berry model to light scattering from 11 different angles using Wyatt Astra software.
FIGS. 5, A and B (top): Reduction in Elastic (G′) and Viscous (G″) moduli of 4% solids dry weight mucus reduced with DTT (1 mM) and ORP100S (0.01, 0.1, and 1.0 mM concentrations) for 1 hr at 37° C. […] All data were collected by examining frequency sweeps of mucus performed in the linear regime and analyzed at 1 rad/s on a TA DHR3 rheometer.

B1: ORP100S: thioredoxin with monothiol active site, Cys35 and non-active Cys 62, 69 and 73 substituted with serine (SEQ ID NO:29) (protein)
chain: MVKQIESKTAFQEALDAAGDKLVVVDFSATWCGPSKMIKPFFHSLSEKYSNVIFLEVDVDDSQDVASESEVKSMPTFQFFKKGQKVGEFSGANKEKLEATINELV
modifications: synthetic peptide motif
reduction in elastic modulus G′ (10 μM): significant reduction in G′ was not apparent | reduction in viscous modulus G″ (10 μM): ~2 fold | reduction in viscous modulus G″ (100 μM): reduced by a similar amount as observed with 10 μM | elastic modulus G′ (100 μM, baseline value 0.28 Pa): 0.19 Pa | reduction in G′, factor (1 mM): ~3 | reduction in G″, factor (1 mM): ~3
